B1: Spiked Peptide 5 (TCRLLGPVDKGHDVT) (peptide)
peptide: TCRLLGPVDKGHDVT
notes: synthetic overlapping peptide from human VISTA
B2: Spiked Peptide 17 (LAQRHGLESASDHHG) (peptide)
peptide: LAQRHGLESASDHHG
notes: as for B1
B3: Spiked Peptide 22 (LLDSGLYCCLVVEIR) (peptide)
peptide: LLDSGLYCCLVVEIR
notes: as for B1
B4: Spiked Peptide 14 (HLHHGGHQAANTSHD) (peptide)
peptide: HLHHGGHQAANTSHD
notes: as for B1
B5: Spiked Peptide 13 (TFQDLHLHHGGHQAA) (peptide)
peptide: TFQDLHLHHGGHQAA
notes: as for B1
B6: Spiked Peptide 1 (FKVATPYSLYVCPEG) (peptide)
peptide: FKVATPYSLYVCPEG
notes: as for B1
B7: Spiked Peptide 20 (NFSITMRNLTLLDSG) (peptide)
peptide: NFSITMRNLTLLDSG
notes: as for B1
B8: Spiked Peptide 18 (GLESASDHHGNFSIT) (peptide)
peptide: GLESASDHHGNFSIT
notes: as for B1
B9: Spiked Peptide 4 (QNVTLTCRLLGPVDK) (peptide)
peptide: QNVTLTCRLLGPVDK
notes: as for B1
B10: Spiked Peptide 19 (SDHHGNFSITMRNLT) (peptide)
peptide: SDHHGNFSITMRNLT
notes: as for B1
B11: Spiked Peptide 12 (PIRNLTFQDLHLHHG) (peptide)
peptide: PIRNLTFQDLHLHHG
notes: as for B1
B12: Spiked Peptide 23 (LYCCLVVEIRHHHSE) (peptide)
peptide: LYCCLVVEIRHHHSE
notes: as for B1
B13: Spiked Peptide 8 (FYKTWYRSSRGEVQT) (peptide)
peptide: FYKTWYRSSRGEVQT
notes: as for B1
B14: Spiked Peptide 11 (CSERRPIRNLTFQDL) (peptide)
peptide: CSERRPIRNLTFQDL
notes: as for B1
B15: Spiked Peptide 3 (VCPEGQNVTLTCRLL) (peptide)
peptide: VCPEGQNVTLTCRLL
notes: as for B1
B16: Spiked Peptide 21 (MRNLTLLDSGLYCCL) (peptide)
peptide: MRNLTLLDSGLYCCL
notes: as for B1
B17: Spiked Peptide 7 (GHDVTFYKTWYRSSR) (peptide)
peptide: GHDVTFYKTWYRSSR
notes: as for B1
B18: Spiked Peptide 15 (GHQAANTSHDLAQRH) (peptide)
peptide: GHQAANTSHDLAQRH
notes: as for B1
B19: Spiked Peptide 6 (GPVDKGHDVTFYKTW) (peptide)
peptide: GPVDKGHDVTFYKTW
notes: as for B1
B20: Spiked Peptide 10 (GEVQTCSERRPIRNL) (peptide)
peptide: GEVQTCSERRPIRNL
notes: as for B1
B21: Spiked Peptide 9 (YRSSRGEVQTCSERR) (peptide)
peptide: YRSSRGEVQTCSERR
notes: as for B1
B22: Spiked Peptide 2 (PYSLYVCPEGQNVTL) (peptide)
peptide: PYSLYVCPEGQNVTL
notes: as for B1
B23: Spiked Peptide 16 (NTSHDLAQRHGLESA) (peptide)
peptide: NTSHDLAQRHGLESA
notes: as for B1

The first experiment concerns the target VSTB174. As to the kind of experiment: peptide blocking ELISA on plate-bound VISTA, peptide 2 ug/mL. In general terms: ELISA stands for enzyme-linked immunosorbent assay.
Protocol: (§1) ELISA was used to measure the ability of sequential overlapping 15-mer synthetic peptides from human VISTA to block binding of an antibody to full length VISTA-ECD immobilized on a microtiter plate. Nickel coated ELISA plates were blocked with BSA and bound with 0.5 μg/mL VISTA protein (Human recombinant, produced in HEK 293 cells, SinoBiologics) for 1 h at room temperature. Anti-VISTA antibodies were diluted to 2-fold their EC₅₀ concentrations and pre-incubated at a 1:1 ratio with either 2 μg/mL or 20 μg/mL peptide solution in 0.5% BSA in PBST for 30 min at room temperature. Peptide-bound antibody solutions (50 μL) were added to each microtiter well and incubated for 1 h at room temperature, after which the ELISA plate was washed and processed as described above for standard ELISAs. Data are expressed as a percent reduction in ELISA signal obtained without preincubation with peptide solution.
As to B1, the “percent reduction in ELISA signal” value was 14%.

In the case of B2, the “percent reduction in ELISA signal” value was found to be 21%.

As to B3, the “percent reduction in ELISA signal” value was 18%.

Consider B4, for which the “percent reduction in ELISA signal” value was 20%.

In the case of B5, the “percent reduction in ELISA signal” value came out at 26%.

Consider B6, for which the “percent reduction in ELISA signal” value is 1%.

Turning to B7, the “percent reduction in ELISA signal” value was 20%.

For the molecule B8, the “percent reduction in ELISA signal” value stood at 17%.

With B9, the “percent reduction in ELISA signal” value stood at 5%.

For the molecule B10, the “percent reduction in ELISA signal” value was determined as 10%.

Take B11: the “percent reduction in ELISA signal” value worked out at 52%.

As for B12, the “percent reduction in ELISA signal” value came to 31%.

On to B13, for which the “percent reduction in ELISA signal” value was 22%.

As for B14, the “percent reduction in ELISA signal” value is 10%.

In the case of B15, the “percent reduction in ELISA signal” value came to 0%.

For B16, the “percent reduction in ELISA signal” value was 15%.

With B17, the “percent reduction in ELISA signal” value was determined as 8%.

For the molecule B18, the “percent reduction in ELISA signal” value was determined as 9%.

For the molecule B19, the “percent reduction in ELISA signal” value came to 10%.

As for B20, the “percent reduction in ELISA signal” value came to 2%.

B21: the “percent reduction in ELISA signal” value is 0%.

As for B22, the “percent reduction in ELISA signal” value came out at 8%.

Regarding B23, the “percent reduction in ELISA signal” value turned out to be 10%.

The next experiment has as its target T1, Antibody No. 465.1.
T1 construct: also called Ab No. 465.1
Described as above.
Protocol: as §1
As to B1, the “percent reduction in ELISA signal” value came out at 0%.

On to B2, for which the “percent reduction in ELISA signal” value was determined as 8%.

B3: the “percent reduction in ELISA signal” value came out at 0%.

Take B4: the “percent reduction in ELISA signal” value was 11%.

Take B5: the “percent reduction in ELISA signal” value was 15%.

With B6, the “percent reduction in ELISA signal” value stood at 5%.

For B7, the “percent reduction in ELISA signal” value is 0%.

For B8, the “percent reduction in ELISA signal” value was 0%.

On to B9, for which the “percent reduction in ELISA signal” value amounted to 0%.

As to B10, the “percent reduction in ELISA signal” value amounted to 3%.

Regarding B11, the “percent reduction in ELISA signal” value was found to be 9%.

On to B12, for which the “percent reduction in ELISA signal” value came out at 2%.

As to B13, the “percent reduction in ELISA signal” value is 0%.

Take B14: the “percent reduction in ELISA signal” value was determined as 0%.

Take B15: the “percent reduction in ELISA signal” value worked out at 2%.

As for B16, the “percent reduction in ELISA signal” value was found to be 0%.

Turning to B17, the “percent reduction in ELISA signal” value turned out to be 0%.

B18: the “percent reduction in ELISA signal” value came to 0%.

For B19, the “percent reduction in ELISA signal” value came out at 0%.

Consider B20, for which the “percent reduction in ELISA signal” value amounted to 0%.

With B21, the “percent reduction in ELISA signal” value was determined as 3%.

Turning to B22, the “percent reduction in ELISA signal” value was 0%.

Take B23: the “percent reduction in ELISA signal” value was found to be 0%.

The next experiment has as its target Antibody No. 245.1. The description is as above.
Protocol: as §1
With B1, the “percent reduction in ELISA signal” value came out at 7%.

Turning to B2, the “percent reduction in ELISA signal” value was determined as 13%.

On to B3, for which the “percent reduction in ELISA signal” value is 0%.

With B4, the “percent reduction in ELISA signal” value came out at 1%.

On to B5, for which the “percent reduction in ELISA signal” value was 3%.

Consider B6, for which the “percent reduction in ELISA signal” value was 2%.

Consider B7, for which the “percent reduction in ELISA signal” value came to 23%.

Turning to B8, the “percent reduction in ELISA signal” value was found to be 3%.

As for B9, the “percent reduction in ELISA signal” value is 9%.

As for B10, the “percent reduction in ELISA signal” value was 0%.

With B11, the “percent reduction in ELISA signal” value came to 20%.

In the case of B12, the “percent reduction in ELISA signal” value turned out to be 9%.

Take B13: the “percent reduction in ELISA signal” value stood at 8%.

For B14, the “percent reduction in ELISA signal” value turned out to be 4%.

For the molecule B15, the “percent reduction in ELISA signal” value is 0%.

On to B16, for which the “percent reduction in ELISA signal” value turned out to be 10%.

With B17, the “percent reduction in ELISA signal” value was 12%.

As to B18, the “percent reduction in ELISA signal” value was 11%.

Regarding B19, the “percent reduction in ELISA signal” value was found to be 3%.

For the molecule B20, the “percent reduction in ELISA signal” value stood at 0%.

Take B21: the “percent reduction in ELISA signal” value came out at 4%.

B22: the “percent reduction in ELISA signal” value was found to be 1%.

For the molecule B23, the “percent reduction in ELISA signal” value was 0%.

For another experiment, the target named is VSTB174. Kind of experiment: peptide blocking ELISA on plate-bound VISTA, peptide 20 ug/mL.
VSTB174, sequence (VH, as listed by the source, chain 1 of 2): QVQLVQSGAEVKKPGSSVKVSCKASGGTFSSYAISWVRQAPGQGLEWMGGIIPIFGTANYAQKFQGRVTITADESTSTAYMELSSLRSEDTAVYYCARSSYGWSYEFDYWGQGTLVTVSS
VSTB174, sequence (VL, as listed by the source, chain 2 of 2): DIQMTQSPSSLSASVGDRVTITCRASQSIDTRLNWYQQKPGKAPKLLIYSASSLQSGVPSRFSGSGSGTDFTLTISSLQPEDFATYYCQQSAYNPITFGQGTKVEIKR
Protocol: as §1
As for B1, the “percent reduction in ELISA signal” value was determined as 14%.

Take B2: the “percent reduction in ELISA signal” value came to 46%.

B3: the “percent reduction in ELISA signal” value was found to be 75%.

Regarding B4, the “percent reduction in ELISA signal” value came to 79%.

For the molecule B5, the “percent reduction in ELISA signal” value was found to be 81%.

Consider B6, for which the “percent reduction in ELISA signal” value was found to be 18%.

Regarding B7, the “percent reduction in ELISA signal” value was 42%.

On to B8, for which the “percent reduction in ELISA signal” value worked out at 32%.

As for B9, the “percent reduction in ELISA signal” value was found to be 32%.

Consider B10, for which the “percent reduction in ELISA signal” value worked out at 28%.

Turning to B11, the “percent reduction in ELISA signal” value is 89%.

Regarding B12, the “percent reduction in ELISA signal” value is 67%.

Regarding B13, the “percent reduction in ELISA signal” value was found to be 34%.

For B14, the “percent reduction in ELISA signal” value came to 14%.

For B15, the “percent reduction in ELISA signal” value was 37%.

In the case of B16, the “percent reduction in ELISA signal” value was 38%.

As for B17, the “percent reduction in ELISA signal” value came to 30%.

With B18, the “percent reduction in ELISA signal” value amounted to 35%.

For the molecule B19, the “percent reduction in ELISA signal” value came out at 25%.

Turning to B20, the “percent reduction in ELISA signal” value worked out at 0%.

On to B21, for which the “percent reduction in ELISA signal” value turned out to be 0%.

In the case of B22, the “percent reduction in ELISA signal” value came to 3%.

Take B23: the “percent reduction in ELISA signal” value is 28%.

The target of the next experiment is T1, Antibody No. 465.1. The description is as above.
Protocol: as §1
Take B1: the “percent reduction in ELISA signal” value amounted to 12%.

For the molecule B2, the “percent reduction in ELISA signal” value was determined as 7%.

Regarding B3, the “percent reduction in ELISA signal” value turned out to be 41%.

As to B4, the “percent reduction in ELISA signal” value was 43%.

In the case of B5, the “percent reduction in ELISA signal” value came out at 36%.

Take B6: the “percent reduction in ELISA signal” value was 7%.

As for B7, the “percent reduction in ELISA signal” value was 24%.

As for B8, the “percent reduction in ELISA signal” value turned out to be 4%.

With B9, the “percent reduction in ELISA signal” value was 16%.

Regarding B10, the “percent reduction in ELISA signal” value is 4%.

Take B11: the “percent reduction in ELISA signal” value was determined as 55%.

As for B12, the “percent reduction in ELISA signal” value is 36%.

For the molecule B13, the “percent reduction in ELISA signal” value amounted to 0%.

For B14, the “percent reduction in ELISA signal” value stood at 8%.

In the case of B15, the “percent reduction in ELISA signal” value stood at 7%.

With B16, the “percent reduction in ELISA signal” value amounted to 22%.

In the case of B17, the “percent reduction in ELISA signal” value is 26%.

As for B18, the “percent reduction in ELISA signal” value was 3%.

For the molecule B19, the “percent reduction in ELISA signal” value amounted to 4%.

For the molecule B20, the “percent reduction in ELISA signal” value worked out at 4%.

As to B21, the “percent reduction in ELISA signal” value stood at 10%.

Turning to B22, the “percent reduction in ELISA signal” value stood at 1%.

For the molecule B23, the “percent reduction in ELISA signal” value worked out at 0%.

The target of the next experiment is Antibody No. 245.1. The description is as above.
Protocol: as §1
For the molecule B1, the “percent reduction in ELISA signal” value is 9%.

Turning to B2, the “percent reduction in ELISA signal” value is 26%.

Consider B3, for which the “percent reduction in ELISA signal” value was found to be 34%.

As for B4, the “percent reduction in ELISA signal” value is 66%.

In the case of B5, the “percent reduction in ELISA signal” value turned out to be 57%.

With B6, the “percent reduction in ELISA signal” value was 0%.

With B7, the “percent reduction in ELISA signal” value is 28%.

As to B8, the “percent reduction in ELISA signal” value is 3%.

Regarding B9, the “percent reduction in ELISA signal” value came to 25%.

For the molecule B10, the “percent reduction in ELISA signal” value was found to be 9%.

As to B11, the “percent reduction in ELISA signal” value was determined as 62%.

Take B12: the “percent reduction in ELISA signal” value was determined as 37%.

Take B13: the “percent reduction in ELISA signal” value was 1%.

Regarding B14, the “percent reduction in ELISA signal” value was determined as 6%.

On to B15, for which the “percent reduction in ELISA signal” value is 3%.

On to B16, for which the “percent reduction in ELISA signal” value is 4%.

For the molecule B17, the “percent reduction in ELISA signal” value was 26%.

Take B18: the “percent reduction in ELISA signal” value turned out to be 0%.

As to B19, the “percent reduction in ELISA signal” value was found to be 9%.

B20: the “percent reduction in ELISA signal” value was determined as 0%.

With B21, the “percent reduction in ELISA signal” value is 0%.

As for B22, the “percent reduction in ELISA signal” value was 9%.

For the molecule B23, the “percent reduction in ELISA signal” value came out at 14%.

The values are drawn from US20240132593A1 (KINETA, published 2024).
